Measured values taken from the supplement of paper PMC7877785.
± gives the uncertainty stated by the source.

Assay: self-splicing fitness, log relative to wild type (ln ratio); higher = more splicing; Tetrahymena group I intron in knt gene, E. coli kanamycin selection, DiMSum; sequences stand for … in CUCUCU…GGAGGGAAAAGUUAUCAGGCAUGCACCUGGUAGCUAGUCUUUAAACCAAUAGAUUGCAUCGGUUUAAAAGGCAAGACCGUCAAAUUGCGGGAAAGGGGUCAACAGCCGUUCAGUACCAAGUCUCAGGGGAAACUUUGAGAUGGCCUUGCAAAGGGUAUGGUAAUAAGCUGACGGACAUGGUCCUAACCACGCAGCCAAGUCCUAAGUCAACAGAUCUUCUGUUGAUAUGGAUGCAGUUCACAGACUAAAUGUCGGUCGGGGAAGAUGUAUUCUUCUCAUAAGAUAUAGUCGGACCUCUCCUUAAUGGGAGCUAGCGGAUGAAGUGAUGCAACACUGGAGCCGCUGGGAACUAAUUUGUAUGCGAAAGUAUAUUGAUUAGUUUUGGAGUACUCGUGGUCG
Summary of the method: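 Library with all eight P1ex-region intron nucleotides randomised, intron inside the knt kanamycin-resistance gene on pET-22b(+), in E. coli BL21(DE3). Cells grew overnight at 37°C or 30°C on LB agar with or without 25 μg/mL kanamycin (plus 100 μg/mL carbenicillin, 50 μM IPTG, 0.2% rhamnose), in six replicate transformations. Pooled colonies were amplicon-sequenced on Illumina HiSeq 2500. DiMSum fitness is the error-weighted combination of wild-type-normalised replicate fold changes, kanamycin versus none.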

Sequence	self-splicing fitness (ln) (30 °C)	self-splicing fitness (ln) (37 °C)
UAGUAGCAAUAUUACGUCCU	-2.53 ± 0.21	-0.272 ± 0.15
AAAGAGCAAUAUUACGAUUU	-0.695 ± 0.14	0.468 ± 0.13
UAGCAGCAAUAUUACGCGUG	-1.5 ± 0.076	-0.257 ± 0.1
AAGCAGCAAUAUUACGUAGG	-2.79 ± 0.096	-1.96 ± 0.13
GUUGAGCAAUAUUACGAAAG	-2.93 ± 0.38	0.317 ± 0.17
CAUUAGCAAUAUUACGGAAA	-3.86 ± 0.47	-2.52 ± 0.3
ACGUAGCAAUAUUACGUCUU	-3.76 ± 0.16	-1.92 ± 0.15
GGCAAGCAAUAUUACGUGCC		-1.47 ± 0.43
AGUGAGCAAUAUUACGAUUU	-2.6 ± 0.24	-1.12 ± 0.22
ACACAGCAAUAUUACGGGGU	-3.14 ± 0.11	-1.42 ± 0.087
CCCGAGCAAUAUUACGUCGA	-4.11 ± 0.39	-3.16 ± 0.25
AAGGAGCAAUAUUACGUCAG	-3.29 ± 0.41	-2.28 ± 0.45
AGGUAGCAAUAUUACGUGAU	-2.479 ± 0.016	-1.53 ± 0.034
GUCCAGCAAUAUUACGAUAC	-0.876 ± 0.082	-0.0588 ± 0.099
UAAUAGCAAUAUUACGAACC	-3.22 ± 0.49	-2.27 ± 0.39
CUGAAGCAAUAUUACGAACU	-3.64 ± 0.19	-2.37 ± 0.23
UCGUAGCAAUAUUACGACUU	-2.7 ± 0.22	-0.781 ± 0.17
CUGGAGCAAUAUUACGGACU	-3.12 ± 0.25	-2.07 ± 0.46
UAUAAGCAAUAUUACGAAAU	-3.45 ± 0.22	-3.24 ± 0.33
CGUUAGCAAUAUUACGGUUC	-3.01 ± 0.38	-1.83 ± 0.31
CGUUAGCAAUAUUACGUGAA	-2.48 ± 0.15	-1.45 ± 0.15
CGUCAGCAAUAUUACGUACC	-1.33 ± 0.13	0.208 ± 0.15
AGUAAGCAAUAUUACGUGAC		-2.19 ± 0.2
AGGCAGCAAUAUUACGUCCU	-3.02 ± 0.26	-1.29 ± 0.37
CCUUAGCAAUAUUACGUCUC		-2.63 ± 0.3
GGCUAGCAAUAUUACGGCAG	-1.12 ± 0.23	-0.728 ± 0.38
UUUAAGCAAUAUUACGUGCC	-1.95 ± 0.21	-0.891 ± 0.22

Sequence	self-splicing fitness (ln) (30 °C)	self-splicing fitness (ln) (37 °C)
GAGAAGCAAUAUUACGGAUU	-2.77 ± 0.11	-1.63 ± 0.11
UACUAGCAAUAUUACGUGCU	-3.85 ± 0.32	-3.06 ± 0.27
GUUAAGCAAUAUUACGCGGA	-0.996 ± 0.27	-0.987 ± 0.2
CGAUAGCAAUAUUACGCUCA	-0.478 ± 0.11	0.119 ± 0.15
ACCAAGCAAUAUUACGUGGC	-3.68 ± 0.18	-2.94 ± 0.18
UAUCAGCAAUAUUACGAGCA	-0.827 ± 0.084	-0.124 ± 0.11
UGUGAGCAAUAUUACGCGUU	-2.62 ± 0.2	-1.89 ± 0.25
CUUAAGCAAUAUUACGCUGG	-4.54 ± 0.32	-2.64 ± 0.18
AUAGAGCAAUAUUACGCUGG	-1.97 ± 0.14	-1.62 ± 0.2
UUAUAGCAAUAUUACGUGCU	-2.75 ± 0.16	-1.91 ± 0.14
UGAUAGCAAUAUUACGUGCU	-1.84 ± 0.094	-1.59 ± 0.14
AACAAGCAAUAUUACGGCUC	-0.27 ± 0.071	0.236 ± 0.1
AAUAAGCAAUAUUACGAUCU	0.041 ± 0.069	0.493 ± 0.087
CUGGAGCAAUAUUACGUGCU	-2.27 ± 0.23	-2.91 ± 0.34
ACCUAGCAAUAUUACGUGGG	-3.54 ± 0.17	-3.4 ± 0.24
GGUGAGCAAUAUUACGGCAG	-2.25 ± 0.32	
AGCGAGCAAUAUUACGACUG	-1.91 ± 0.15	-0.973 ± 0.17
UGGGAGCAAUAUUACGUCGU	-2.14 ± 0.2	-2 ± 0.46
CAAUAGCAAUAUUACGUUUU	-5.04 ± 0.25	-2.5 ± 0.13
CACGAGCAAUAUUACGGUGC	-3.91 ± 0.37	-2.76 ± 0.28
GUCAAGCAAUAUUACGAAAG	-3.72 ± 0.4	-1.39 ± 0.49
ACAGAGCAAUAUUACGUAAG	-2.36 ± 0.11	-1.73 ± 0.14
CCCUAGCAAUAUUACGGCAG	-3.47 ± 0.22	-2.75 ± 0.22
AGGGAGCAAUAUUACGUCCU	-2.66 ± 0.29	-1.55 ± 0.24
ACCAAGCAAUAUUACGAGAU	-3.84 ± 0.13	-2.65 ± 0.16
UAGGAGCAAUAUUACGAUCU	-3.09 ± 0.4	
AAUUAGCAAUAUUACGAUAG	-3.1 ± 0.26	-1.75 ± 0.18

Sequence	self-splicing fitness (ln) (30 °C)	self-splicing fitness (ln) (37 °C)
CCGGAGCAAUAUUACGACUA	-2.18 ± 0.45	-1.88 ± 0.27
CCAUAGCAAUAUUACGCAUU	-3.65 ± 0.26	-2.84 ± 0.36
GUAUAGCAAUAUUACGAGAA		-2.32 ± 0.49
GGCCAGCAAUAUUACGACUG	-0.744 ± 0.12	-0.348 ± 0.15
UGACAGCAAUAUUACGCGCU	-0.554 ± 0.086	-0.657 ± 0.099
UGCUAGCAAUAUUACGGUUC	-2.49 ± 0.16	-1.69 ± 0.14
GUCAAGCAAUAUUACGGUCU	-2.7 ± 0.084	-0.906 ± 0.075
AGACAGCAAUAUUACGGCAG	-3.3 ± 0.15	-1.09 ± 0.12
UGUUAGCAAUAUUACGCGUA	-0.809 ± 0.12	-0.454 ± 0.13
GUCGAGCAAUAUUACGAGCG	-2.88 ± 0.19	-1.03 ± 0.23
GGUCAGCAAUAUUACGCAAC	-0.639 ± 0.11	-0.859 ± 0.17
GUAAAGCAAUAUUACGUAUG	-4.04 ± 0.25	-0.559 ± 0.12
UUAUAGCAAUAUUACGGAGA	-2.04 ± 0.27	-1.89 ± 0.32
GCGGAGCAAUAUUACGUCAA	-2.42 ± 0.37	
GCUGAGCAAUAUUACGUGUU	-3.4 ± 0.2	-2.37 ± 0.21
GCCUAGCAAUAUUACGUAAC	-0.911 ± 0.17	-0.248 ± 0.2
AAUGAGCAAUAUUACGGAAC	-3.52 ± 0.47	
AAGCAGCAAUAUUACGAGCG	-1.12 ± 0.11	-0.344 ± 0.14
GUACAGCAAUAUUACGCGUG	-2 ± 0.061	-1.42 ± 0.072
CUGAAGCAAUAUUACGUCCA	-1.93 ± 0.25	
AUGUAGCAAUAUUACGGAGA		-2.06 ± 0.38
UAUCAGCAAUAUUACGAUUC	-0.925 ± 0.081	-0.0952 ± 0.092
AGUAAGCAAUAUUACGACGA	-1.15 ± 0.073	-0.782 ± 0.079
CUGCAGCAAUAUUACGAACG	0.237 ± 0.087	-0.269 ± 0.08
CACGAGCAAUAUUACGAGGC	-3.19 ± 0.26	-1.81 ± 0.24
